This assay concerns the target T1, His-tagged USP7S (Ser18-containing isoform of USP7/HAUSP), purified recombinant (human, UniProt Q93009 1-1102, phosphoserine at 18 as purified from insect cells; not stated whether the phosphorylated or the dephosphorylated form stood in the pull-down of Figure 4D).
T1 construct: USP7 (HAUSP), human, the isoform that contains serine 18 (USP7S); also called pUSP7S; source: recombinant, purified from insect cells
The experiment in a line: pull-down; equal amounts (0.42 pmol) of purified His-tagged USP7S and PPM1G incubated at room temperature for 30 min; USP7S pulled down with magnetic Ni-NTA agarose beads (magnetic beads as mock control); western blot with USP7S and PPM1G antibodies. The following applies: both partners purified. (A western blot detects proteins with antibodies after separation by electrophoresis.)

We go through one molecule from paper PMC3401373, “ATM-Dependent Downregulation of USP7/HAUSP by PPM1G Activates p53 Response to DNA Damage” (Molecular Cell, 2012).

T1 sequence (Q93009 whole entry, canonical isoform): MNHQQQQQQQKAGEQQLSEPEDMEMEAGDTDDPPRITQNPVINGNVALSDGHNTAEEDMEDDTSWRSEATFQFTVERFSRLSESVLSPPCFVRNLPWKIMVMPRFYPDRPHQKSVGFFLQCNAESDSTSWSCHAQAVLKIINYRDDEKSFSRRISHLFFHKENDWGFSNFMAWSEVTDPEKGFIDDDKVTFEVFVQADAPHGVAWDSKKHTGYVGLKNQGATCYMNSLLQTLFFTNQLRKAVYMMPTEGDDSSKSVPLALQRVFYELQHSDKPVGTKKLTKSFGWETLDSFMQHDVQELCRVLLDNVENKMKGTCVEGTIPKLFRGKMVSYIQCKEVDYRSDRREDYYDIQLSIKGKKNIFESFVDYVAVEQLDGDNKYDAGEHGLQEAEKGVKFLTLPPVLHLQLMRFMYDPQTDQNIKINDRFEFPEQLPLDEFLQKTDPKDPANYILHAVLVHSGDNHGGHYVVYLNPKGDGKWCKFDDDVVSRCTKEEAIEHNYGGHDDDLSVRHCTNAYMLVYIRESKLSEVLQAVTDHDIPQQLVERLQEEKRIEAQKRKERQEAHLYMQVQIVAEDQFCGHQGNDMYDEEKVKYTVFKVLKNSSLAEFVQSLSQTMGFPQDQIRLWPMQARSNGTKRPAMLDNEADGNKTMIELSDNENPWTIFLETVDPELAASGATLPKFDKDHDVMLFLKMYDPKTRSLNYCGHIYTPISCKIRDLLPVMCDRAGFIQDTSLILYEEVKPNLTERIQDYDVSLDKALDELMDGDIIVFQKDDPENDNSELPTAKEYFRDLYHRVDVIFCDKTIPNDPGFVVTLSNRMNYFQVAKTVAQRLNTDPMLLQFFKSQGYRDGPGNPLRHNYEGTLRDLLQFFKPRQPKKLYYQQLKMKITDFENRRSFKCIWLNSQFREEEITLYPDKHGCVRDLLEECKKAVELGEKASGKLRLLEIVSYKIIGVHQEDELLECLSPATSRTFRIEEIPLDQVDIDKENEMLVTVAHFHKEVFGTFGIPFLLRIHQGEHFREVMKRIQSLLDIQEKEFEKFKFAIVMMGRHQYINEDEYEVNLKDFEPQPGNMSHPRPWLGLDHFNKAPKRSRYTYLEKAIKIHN

B1: PPM1G, purified recombinant (enzyme, human, UniProt O15355 1-546, looked up)
chain: MGAYLSQPNTVKCSGDGVGAPRLPLPYGFSAMQGWRVSMEDAHNCIPELDSETAMFSVYDGHGGEEVALYCAKYLPDIIKDQKAYKEGKLQKALEDAFLAIDAKLTTEEVIKELAQIAGRPTEDEDEKEKVADEDDVDNEEAALLHEEATMTIEELLTRYGQNCHKGPPHSKSGGGTGEEPGSQGLNGEAGPEDSTRETPSQENGPTAKAYTGFSSNSERGTEAGQVGEPGIPTGEAGPSCSSASDKLPRVAKSKFFEDSEDESDEAEEEEEDSEECSEEEDGYSSEEAENEEDEDDTEEAEEDDEEEEEEMMVPGMEGKEEPGSDSGTTAVVALIRGKQLIVANAGDSRCVVSEAGKALDMSYDHKPEDEVELARIKNAGGKVTMDGRVNGGLNLSRAIGDHFYKRNKNLPPEEQMISALPDIKVLTLTDDHEFMVIACDGIWNVMSSQEVVDFIQSKISQRDENGELRLLSSIVEELLDQCLAPDTSGDGTGCDNMTCIIICFKPRNTAELQPESGKRKLEEVLSTEGAEENGNSDKKKKAKRD
notes: Serine/threonine protein phosphatase PPM1G (PP2Cγ), human; also called PP2Cγ; PPM1GGST; source: purified recombinant
For the molecule B1, the binding result is reported as “binds”.
